Assay results as given in patent publication US20260234276A1.

Molecular target: human CCR8 (human) (UniProt P51685)
Assay: flow cytometry, hCCR8 transfected CHOK1 cells

B1: 3-27 (antibody, V domains shown)
VH: EVKLVESGGGLVKSGGSLKLSCAASGFTFSSYAMSWVRQTPEKRLEWVASINSGGSIYYPDSVKGRFTISRDNARNILYLQMSSLRSEDTAMYYCARGFGAYWGQGTLVTVSA
VL: DIQMTQSPSSLSASLGERVTLTCRASQDIGSSLHWLQQEPDGTIKRLIYATSSLDSGVPKRFSGSRSGSDYSLTISSLESEDFVDYYCLQYATSPTFGGGTKLEIK
Q: Which % positive cells does the source give for B1 here?
A: The % positive cells was 42.5%.

Q: What about the MFI fold change to isotype ctrl of the same binder?
A: The MFI fold change to isotype ctrl was 2.76 fold.
